Target: the molecule itself
Assay: dynamic light scattering

B1: Δ68-269 SaMGT (transmembrane domain-less monoglycosyltransferase from S. aureus) (domain or fragment)
chain: DNVDELRKIENKSSFVSADNMPEYVKGAFISMEDERFYNHHGFDLKGTTRALFSTISDRDVQGGSTITQQVVKNYFYDNDRSFTRKVKELFVAHRVEKQYNKNEILSFYLNNIYFGDNQYTLEGAANHYFGTTVNKNSTTMSHITVLQSAILASKVNAPSVYNINNMSENFTQRVSTNLEKMKQQNYINETQYQQAMSQLNR
binding result: binds
